B1: 3TF12 IgG1 antibody (from 3TF12 scFv of WO 2011/073943) (antibody, V domains shown)
VH: QVQLQESGGGLVQPGGSLRLSCAASGFSFNTYTMHWVRQAPGKGLEWVADIAYDGSTKYYADSVKGRFTISRDNAKNSLYLQMNSLRAEDTAVYYCARDAVAGEGYFDLWGRGTLVTVSS
VL: QSALTQDPAVSVALGQTVRITCQGDSLRSYYASWYQQLPGTAPKLLIYRNNQRPSGVPDRFSGSKSGTSASLAISGLRSEDEADYYCAAWDDSLSAWVFGGGTKLTVLG
notes: also called 3TF12 antibody
B2: TfR006 antibody (parent antibody, IgG) (antibody, V domains shown)
VH: QVQLVQSGGGVVQPGRSLRLSCAASGFPFKSYGMHWVRQAPGKGLEWVAVISFDGSSKYYADSVKGRFTISRDNSKNTLYLQMNSLRGEDTAVYYCARDSNFWSGYYSPVDVWGQGTTVTVSS
VL: NFMLTQPHSVSESPGKTVTISCTRSSGSIASNSVQWYQQRPGSAPITVIYEDTQRPSGVPDRFSGSIDSSSNSASLTISGLQTEDEADYYCQSYDSAYHWVFGGGTKLAVL

Columns and labels:
[1] = molecular target: T1, soluble TfR antigen (human TfR extracellular domain) (human, UniProt P02786 89-760); assay: ELISA, soluble TfR antigen coated at 2 ug/mL, HRP anti-human IgG Fc, A450
T1 construct: also called soluble human TfR

[2] = molecular target: human transferrin receptor (TfR) on cells (human, UniProt P02786 1-760); assay: cell-based or functional assay
human transferrin receptor (TfR) on cells, sequence (P02786 whole entry): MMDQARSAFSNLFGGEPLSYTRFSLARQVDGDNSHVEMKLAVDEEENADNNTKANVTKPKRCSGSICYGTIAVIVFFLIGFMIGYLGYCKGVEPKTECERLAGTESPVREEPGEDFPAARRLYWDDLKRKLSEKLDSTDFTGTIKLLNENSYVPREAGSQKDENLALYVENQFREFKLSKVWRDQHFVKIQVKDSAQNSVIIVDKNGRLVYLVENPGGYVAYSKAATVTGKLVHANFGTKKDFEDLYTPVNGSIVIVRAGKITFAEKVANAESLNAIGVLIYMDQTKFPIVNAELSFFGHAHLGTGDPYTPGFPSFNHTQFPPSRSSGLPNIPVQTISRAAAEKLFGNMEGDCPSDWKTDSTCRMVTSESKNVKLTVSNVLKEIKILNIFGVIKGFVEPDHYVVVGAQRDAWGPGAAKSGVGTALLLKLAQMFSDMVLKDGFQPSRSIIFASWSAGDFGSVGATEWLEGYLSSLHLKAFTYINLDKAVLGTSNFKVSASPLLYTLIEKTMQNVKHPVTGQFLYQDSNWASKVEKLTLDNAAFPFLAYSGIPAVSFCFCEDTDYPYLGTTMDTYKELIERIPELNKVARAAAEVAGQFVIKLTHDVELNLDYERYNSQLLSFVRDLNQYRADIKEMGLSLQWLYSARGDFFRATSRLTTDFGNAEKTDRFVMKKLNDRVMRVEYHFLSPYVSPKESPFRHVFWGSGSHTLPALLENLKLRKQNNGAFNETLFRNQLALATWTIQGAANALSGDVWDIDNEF

T1 sequence (P02786 89-760 limits assumed): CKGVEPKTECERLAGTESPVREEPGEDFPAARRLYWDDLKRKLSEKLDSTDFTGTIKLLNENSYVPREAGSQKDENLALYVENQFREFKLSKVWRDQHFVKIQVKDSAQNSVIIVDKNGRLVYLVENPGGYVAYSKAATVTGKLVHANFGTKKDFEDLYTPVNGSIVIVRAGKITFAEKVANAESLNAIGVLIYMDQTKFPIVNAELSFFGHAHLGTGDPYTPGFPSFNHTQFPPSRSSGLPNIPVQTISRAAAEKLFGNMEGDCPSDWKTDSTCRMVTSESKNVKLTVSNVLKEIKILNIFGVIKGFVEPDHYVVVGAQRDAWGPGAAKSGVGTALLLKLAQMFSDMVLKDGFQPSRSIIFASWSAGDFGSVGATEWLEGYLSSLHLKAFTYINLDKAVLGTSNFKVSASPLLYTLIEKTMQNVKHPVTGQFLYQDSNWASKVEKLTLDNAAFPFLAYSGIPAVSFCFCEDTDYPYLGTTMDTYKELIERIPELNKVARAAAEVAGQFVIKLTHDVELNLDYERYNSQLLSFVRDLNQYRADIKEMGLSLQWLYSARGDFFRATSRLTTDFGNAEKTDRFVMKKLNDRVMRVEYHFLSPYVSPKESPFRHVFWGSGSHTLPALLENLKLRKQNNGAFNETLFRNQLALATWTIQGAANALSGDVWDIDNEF

| Binder | binding result [1] | Antibody concentration exhibiting 50% growth rate (IC50), K562 cells [2] [µg/mL] | Antibody concentration exhibiting 50% growth rate (IC50), MT-2 cells [2] [µg/mL] |
| --- | --- | --- | --- |
| B1 | binds | – | – |
| B2 | – | 0.034 | 0.008 |
